In US20230183352A1:
Positions count from the first letter of the chain named.

B1: QP190191 (antibody, human IgG1, V domains shown)
VH: EVKLVESGGGLVKPGGSLKLSCAASGFTFSNYAMSWVRQTPEKRLEWVASIISGGRTYYLDSEKGRFTISRDNARNNLYLQMSSLRSEDTAMYYCTRIYYGNSFDYWGQGTTLTVSS
VL: DIVMTQSPSSQTVTAGEKVTMSCKSSQSLLNSGNQKNYLTWYQQKPGQPPKLLIYWASTRESGVPDRFTGSGSGTDFTLTISNMQAEDLAVYYCQNDYSYPFTFGSGTKLEIK
B2: QP207208 (antibody, human IgG1, V domains shown)
VH: EVQLQQSGPELVKPGASVKMSCKASGYTFTSYIMHWVKQKPGQGLEWIGYINPYNDGTKYNEKFKGKATLTSDKSSSTVYMELSSLTSEDSAVYCCARLGFTTRNAMDYWGQGTSVTVSS
VL: B1 VL with Q11L, T12S, T14S, S22N, T40A, W56G, N83S, M84V, Y98H
B3: QP199200 (antibody, human IgG1, V domains shown)
VH: DVQLVESGGGLVQPGGSRKLSCAASGFTFSSFGMHWVRQAPEKGLEWVAYISSGSNSIYYVDTVKGRFTISRDNPKNTLFLQMTSLKSEDTAMYYCARNAYYGNSFDYWGQGTTLTVSS
VL: B1 VL with Q11L, D76V, N83S, M84V, Y93F, D97N, S99Y, F102L, S106A, I112L
B4: QP192193 (antibody, human IgG1, V domains shown)
VH: QVQLQQSGAELVRPGSSVKISCKASGYAFSSYWMNWVKQRPGQGLEWIGQIYPGNGDTTYNGKFKGQATLTADKSSSTVYMQLSSLTSEDSAVYFCARFVKGNAMDYWGQGTSVTVSS
VL: B1 VL with Q11L, K45N, L52M, T75I, T78S, N83S, M84V, V91L, D97A
B5: QP201202 (antibody, human IgG1, V domains shown)
VH: EVQLQQSGPELVKPGASVKMSCKASGYTFTNYFVHWVKQKPGQGLEWIGYINPYNDDTKYNEKFKGKATLTSDKSSSTAYMDLSSLTSEDSAVYYCLSLRFFAYWGQGTLVTVSA
VL: B1 VL with Q11L, P49A, T69I, N83H, M84V, Y93F, F102L, S106A, K109N, I112L
B6: QP320 (Fc fusion, not shown: a dimerising Fc or GST)
chain: EVQLLESGGGLVQPGGSLRLSCAASGFTYGTYAMSWVRQAPGKGLEWVSCIDIYGRASYTDPVKGRFTISRDNSKNTLYLQMNSLRAEDTAVYYCAARDFGYCTASWVHEGFSRYWGQGTLVTVSS
B7: QP1166 (Fc fusion, not shown: a dimerising Fc or GST)
chain: QVQLVESGGDSVQPGGSLRLSCAASGFTYGTYAMSWFRQAPGKEREGVACIDIYGRTSYTDPVKGRFTISQDNAKNTLYLQMNSLKPEDTAMYYCAARDFGYCTASWVHEGFSRYWGQGTQVTVSS
B8: QP324 (Fc fusion, not shown: a dimerising Fc or GST)
chain: B6 chain with S49A, A57T, R71Q
B9: QP325 (Fc fusion, not shown: a dimerising Fc or GST)
chain: B6 chain with V37F, W47G, S49A, A57T, R71Q

target: Claudin 18.1 (CLDN18.1), expressed on CHOS-CLDN18.1 cells (UniProt P56856); experiment: FACS, CHOS-CLDN18.1 cells, 10 µg/ml
Sequence (P56856 whole entry): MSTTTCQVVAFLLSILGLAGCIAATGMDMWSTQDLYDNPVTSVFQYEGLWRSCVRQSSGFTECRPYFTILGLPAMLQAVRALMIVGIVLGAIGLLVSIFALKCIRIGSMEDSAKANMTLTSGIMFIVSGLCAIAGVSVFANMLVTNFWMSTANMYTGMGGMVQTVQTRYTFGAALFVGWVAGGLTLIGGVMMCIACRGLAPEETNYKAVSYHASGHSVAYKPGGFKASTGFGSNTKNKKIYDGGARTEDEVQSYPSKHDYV

Binder | MFI
B1 | 1060
B2 | 1320
B3 | 918
B4 | 1030
B5 | 1150

target: Biotin QP004.3 (biotin-PDL1-FC) (human) (UniProt Q9NZQ7); experiment: blocking ELISA, PD1-FC coated, biotin-PDL1-FC plus antibody; competitor PD1-FC
Sequence (Q9NZQ7 19-238 limits assumed): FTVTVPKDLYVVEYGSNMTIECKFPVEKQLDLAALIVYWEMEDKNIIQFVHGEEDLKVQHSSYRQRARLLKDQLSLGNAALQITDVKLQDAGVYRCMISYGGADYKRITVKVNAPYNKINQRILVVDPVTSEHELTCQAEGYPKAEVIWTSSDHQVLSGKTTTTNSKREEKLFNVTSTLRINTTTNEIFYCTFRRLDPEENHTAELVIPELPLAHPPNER

Binder | ELISA reading at 0.0457 nM antibody | ELISA reading at 0.1372 nM antibody | ELISA reading at 0.4115 nM antibody | ELISA reading at 1.2346 nM antibody | ELISA reading at 3.7037 nM antibody | ELISA reading at 11.1111 nM antibody | ELISA reading at 33.3333 nM antibody | ELISA reading at 100.0000 nM antibody
B6 | 1.21 | 1.3 | 1.47 | 1.08 | 1.11 | 1.12 | 1.02 | 0.793
B7 | 1.16 | 1.24 | 1.06 | 1.13 | 1.06 | 0.508 | 0.239 | 0.167
B8 | 1.29 | 1.06 | 0.901 | 0.879 | 0.895 | 0.753 | 0.737 | 0.661
B9 | 1.08 | 1.02 | 0.975 | 0.995 | 1.03 | 0.513 | 0.238 | 0.156

target: Biotin QP004.3 (biotin-PDL1-FC) (human) (UniProt Q9NZQ7); experiment: binding ELISA, antibody coated, biotin-PDL1-FC titrated

Binder | ELISA reading at 0.0007 µg/ml biotin-PDL1-FC | ELISA reading at 0.0021 µg/ml biotin-PDL1-FC | ELISA reading at 0.0062 µg/ml biotin-PDL1-FC | ELISA reading at 0.0185 µg/ml biotin-PDL1-FC | ELISA reading at 0.0556 µg/ml biotin-PDL1-FC | ELISA reading at 0.1667 µg/ml biotin-PDL1-FC | ELISA reading at 0.5000 µg/ml biotin-PDL1-FC | ELISA reading at 2.0000 µg/ml biotin-PDL1-FC
B6 | 0.125 | 0.114 | 0.108 | 0.0792 | 0.0843 | 0.0957 | 0.142 | 0.23
B7 | 0.217 | 0.56 | 1.55 | 2.57 | 3.23 | 3.13 | 3.28 | 3.41
B8 | 0.192 | 0.141 | 0.15 | 0.107 | 0.0882 | 0.129 | 0.201 | 0.413
B9 | 0.182 | 0.598 | 1.32 | 2.12 | 2.78 | 3.11 | 3.21 | 3.42
